Experimental findings from patent US20030177526A1 (PLANT HEALTH CARE, published 2003) are described below.

B3: LexA alone (empty bait vector pVJL11) (other)
chain: MKALTARQQEVFDLIRDHISQTGMPPTRAEIAQRLGFRSPNAAEEHLKALARKGVIEIVSGASRGIRLLQEEEEGLPLVGRVAAGEPLLAQQHIEGHYQVDPSLFKPNADFLLRVSGMSMKDIGIMDGDLLAVHKTQDVRNGQVVVARIDDEVTVKRLKKQGNKVELLPENSEFKPIVVDLRQQSFTIEGLAVGVIRNGDWL
notes: Control

In assay [1] the target is T1, LexA-harpin fusion (HrpN of Erwinia amylovora in bait vector pVJL11) (Erwinia amylovora, UniProt Q01099 1-403).
T1 construct: range 1-403; also called HrpN-pVJL11; lexA-harpin fusion protein; not shown: prokaryotic LexA protein (DNA-BD encoded in bait vector pVJL11)
T1 sequence: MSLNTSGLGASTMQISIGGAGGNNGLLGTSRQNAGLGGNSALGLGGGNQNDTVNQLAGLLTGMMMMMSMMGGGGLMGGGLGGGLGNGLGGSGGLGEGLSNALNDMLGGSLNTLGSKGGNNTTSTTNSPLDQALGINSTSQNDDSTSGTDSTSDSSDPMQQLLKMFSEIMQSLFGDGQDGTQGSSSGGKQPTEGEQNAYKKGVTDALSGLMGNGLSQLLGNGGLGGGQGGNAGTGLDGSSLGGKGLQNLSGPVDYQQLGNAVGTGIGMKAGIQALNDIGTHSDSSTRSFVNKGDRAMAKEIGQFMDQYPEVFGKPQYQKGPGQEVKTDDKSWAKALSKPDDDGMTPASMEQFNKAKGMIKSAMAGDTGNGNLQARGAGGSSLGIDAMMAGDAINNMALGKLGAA
Nature of the assay: yeast two-hybrid, harpin as bait.

Assay [2] has as its target T2, LexA fused to harpin 137-180 amino acids (Erwinia amylovora, UniProt Q01099 137-180).
T2 construct: also called harpin fragment that contains the second HR domain; not shown: prokaryotic LexA protein (bait vector)
T2 chain (looked up): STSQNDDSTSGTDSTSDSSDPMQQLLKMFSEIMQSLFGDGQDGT
Nature of the assay: yeast two-hybrid, harpin fragment as bait.

Assay [3] has as its target T3, LexA fused to harpin 210-403 amino acids (Erwinia amylovora, UniProt Q01099 210-403).
T3 construct: range 210-403; not shown: prokaryotic LexA protein (bait vector)
T3 sequence: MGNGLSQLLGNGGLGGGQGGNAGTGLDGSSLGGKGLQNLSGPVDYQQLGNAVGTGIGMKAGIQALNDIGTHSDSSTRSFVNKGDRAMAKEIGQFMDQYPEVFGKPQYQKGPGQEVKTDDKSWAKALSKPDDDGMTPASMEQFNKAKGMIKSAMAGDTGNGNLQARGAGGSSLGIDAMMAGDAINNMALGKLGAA
Description: yeast two-hybrid, lacZ and HIS3 reporters.

For assay [4], the target named is B3. Description: yeast two-hybrid, lacZ and HIS3 reporters.
For assay [5], the target named is T1, LexA-harpin fusion (HrpN of Erwinia …). Description: yeast two-hybrid, lacZ and HIS3 reporters.
In assay [6] the target is T4, LexA-AtHrBP1p fusion (AtHrBP1 in bait vector pVJL11) (Arabidopsis thaliana, UniProt Q9LW57 1-284).
T4 construct: Yeast two-hybrid bait, opposite orientation; also called AtHrBP1-pVJL11; AtHrBP1p fused with the DNA-BD; not shown: prokaryotic LexA protein (DNA-BD encoded in bait vector pVJL11)
T4 sequence: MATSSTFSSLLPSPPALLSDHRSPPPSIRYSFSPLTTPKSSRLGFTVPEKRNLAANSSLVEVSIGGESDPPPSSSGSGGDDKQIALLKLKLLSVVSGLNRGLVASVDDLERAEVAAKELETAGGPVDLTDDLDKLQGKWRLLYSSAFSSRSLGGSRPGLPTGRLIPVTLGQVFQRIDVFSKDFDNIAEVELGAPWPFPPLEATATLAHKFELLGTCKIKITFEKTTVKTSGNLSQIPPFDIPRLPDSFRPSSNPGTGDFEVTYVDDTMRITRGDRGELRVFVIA
Nature of the assay: yeast two-hybrid, lacZ and HIS3 reporters.

Assay [7] concerns the target T5, GAL4 activation domain-harpin fusion (hrpN in prey vector pGAD GH) (yeast; Erwinia amylovora, UniProt Q01099 1-403).
T5 construct: range 1-403; also called hrpN-pGAD GH
T5 sequence: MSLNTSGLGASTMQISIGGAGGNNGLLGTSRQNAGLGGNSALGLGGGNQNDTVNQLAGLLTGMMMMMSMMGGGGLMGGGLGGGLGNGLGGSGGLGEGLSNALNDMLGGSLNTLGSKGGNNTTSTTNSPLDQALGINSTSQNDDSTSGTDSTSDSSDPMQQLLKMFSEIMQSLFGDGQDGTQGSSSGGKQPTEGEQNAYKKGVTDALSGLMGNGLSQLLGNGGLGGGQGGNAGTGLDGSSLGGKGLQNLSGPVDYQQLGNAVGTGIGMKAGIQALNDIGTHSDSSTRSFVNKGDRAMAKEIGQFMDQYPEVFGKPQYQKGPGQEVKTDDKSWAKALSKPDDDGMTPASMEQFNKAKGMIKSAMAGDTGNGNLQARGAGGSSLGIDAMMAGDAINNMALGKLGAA
Description: yeast two-hybrid, lacZ and HIS3 reporters.

For assay [8], the target named is T6, GAL4 activation domain-AtHrBP1p fusion (longest 1 kb cDNA insert in pGAD 10) (yeast; Arabidopsis thaliana, UniProt Q9LW57 1-284).
T6 construct: Yeast two-hybrid prey; also called AtHrBP1-AD fusion prey
T6 sequence: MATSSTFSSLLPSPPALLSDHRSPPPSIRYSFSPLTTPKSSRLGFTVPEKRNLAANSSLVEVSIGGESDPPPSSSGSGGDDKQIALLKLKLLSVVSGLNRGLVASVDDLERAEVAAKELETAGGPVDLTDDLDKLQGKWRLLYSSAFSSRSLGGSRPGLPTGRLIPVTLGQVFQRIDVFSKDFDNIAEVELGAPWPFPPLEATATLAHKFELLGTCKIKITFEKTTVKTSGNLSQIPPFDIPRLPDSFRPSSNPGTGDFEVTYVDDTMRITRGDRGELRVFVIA
Nature of the assay: yeast two-hybrid, lacZ and HIS3 reporters.

B1: GAL4 activation domain-rice HrBP1p (R6p) fusion (receptor)
chain: VAALKVKLLSAVSGLNRGLAGSQEDLDRADAAARELEAAAGGGPVDLERDVDKLQGRWRLVYSSAFSSRTLGGSRPGPPTGRLLPITLGQVFQRIDVVSKDFDNIVDVELGAPWPLPPVELTATLAHKFEIIGTSSIKITFDKTTVKTKGNLSQLPPLEVPRIPDNLRPPSNTGSGEFEVTYLDGDTRITRGDRGELRVFVIS
notes: Partial cDNA clone from a yeast two-hybrid screen with harpin as bait; not full length
As to B1, the binding result in assay [1] was “binds”; in assay [2], “binds”; in assay [3], “no binding”; in assay [4] it was “no binding”.

B2: GAL4 activation domain alone (empty prey vector pGAD GH) (other)
chain: ANFNQSGNIADSSLSFTFTNSSNGPNLITTQTNSQALSQPIASSNVHDNFMNNEITASKIDDGNNSKPLSPGWTDQTAYNAFGITTGMFNTTTMDDVYNYLFDDEDTPPNPKKE
notes: Control
As to B2, the binding result in assay [5] and in assay [6] was “no binding” each time.

For B3, the binding result in assay [7] and in assay [8] was “no binding” in each case.
